Values of other authors in publication PMC4657025.
Changes are numbered by the printed parent chain. Names may count otherwise. Read-outs that look alike come from different tables or passages of the source.

B1: Bacteriorhodopsin (BR) (Halobacterium salinarum) (protein)
chain: QAQITGRPEWIWLALGTALMGLGTLYFLVKGMGVSDPDAKKFYAITTLVPAIAFTMYLSMLLGYGLTMVPFGGEQNPIYWARYADWLFTTPLLLLDLALLVDADQGTILALVGADGIMIGTGLVGALTKVYSYRFVWWAISTAAMLYILYVLFFGFTSKAESMRPEVASTFKVLRNVTVVLWSAYPVVWLIGSEGAGIVPLNIETLLFMVLDVSAKVGFGLILLRSRAIFGEAEAPEPSAGDGAAATSD
B2: Bacteriorhodopsin R82Q mutant (Halobacterium salinarum; R82Q) (protein)
chain: B1 chain with R82Q

Columns and labels:
[1] = biological target: Asp85 (UniProt position 98, …)
[2] = biological target: Asp96 (UniProt position 109, …); test: not stated in the text (title of ref 19 indicates FTIR spectroscopy); conditions: dark state (unphotolysed BR)
[3] = biological target: Asp85 (UniProt position 98, …); conditions: 150 mM NaCl

| Protein | pKa [1] | pKa ([1]; 150 mM NaCl) | pKa [2] | pKa [3] |
| --- | --- | --- | --- | --- |
| B1 | 2.7 | 2.5 | >11 | – |
| B2 | – | – | – | 7.2 |
